Earlier results on one molecule are cited in patent publication US20090291133A1, “METHODS AND COMPOSTIONS FOR ENHANCING TRANSDERMAL DRUG DELIVERY” (NATIONAL HEALTH RESEARCH INSTITUTES, priority 2008, published 2009).

Like-named read-outs stand apart in the source and are kept apart here.

For this data set the following is noted: reported in US005534260A.

B1: papain (protein, UniProt P00784 134-345, looked up)
Papain: IPEYVDWRQKGAVTPVKNQGSCGSCWAFSAVVTIEGIIKIRTGNLNEYSEQELLDCDRRSYGCNGGYPWSALQLVAQYGIHYRNTYPYEGVQRYCRSREKGPYAAKTDGVRQVQPYNEGALLYSIANQPVSVVLEAAGKDFQLYRGGIFVGPCGNKVDHAVAAVGYGPNYILIKNSWGTGWGENGYIRIKRGTGNSYGVCGLYTSSFYPVKN
notes: proteolytic enzyme used as permeability enhancer
Regarding B1, the “safe concentration of papain” value is on record as “around 0.093 mg/ml”. Also, the “safe concentration of papain” value (equivalent in solution) is 4 µM.
